{"source": "patent CN113912709A", "about": "(SHENZHEN NATIONAL CLINICAL RES CENTER FOR INFECTIOUS …, dated 2022)", "binders": {"B1": {"name": "VacW-138 (antibody, V domains shown)", "VH": "not shown", "VL": "AIQLTQSPFSLSASVGDRVTITCRASQGISSALAWYQQKPGKAPKLLIYDASSLESGVPSRFSGSGSGTDFTLTISSLQPEDFATYFCQQVDTYQFTFGPGTKVDIK"}, "B2": {"name": "VacW-209 (antibody, V domains shown)", "VH": "QVQLVESGGGVVQPGRSLRLSCAASGFTFSSIAMHWVRQAPGKGLEWVAVMSFDGSIKYYGDSVKGRFTISRDNSKSTLYLQMNSLRAEDTAVYYCARGVQGYYDRSGYYNLDYNYGMDVWGQGTTVTVSS", "VL": "QSVLTQPPSVSGAPGQRVTISCTGSSSNIGAGYDVHWYQQLPGTAPKLLIYGNSNRPSGVPDRFSGSKSGTSASLAITGLQAEDEADYYCQSYDSSLSGWVFGGGTKLTVL"}, "B3": {"name": "VacW-105 (antibody, V domains shown)", "VH": "QVQLVQSGAEVKKPGSSVKVSCKASGGTFRSYTISWVRQAPGQGLEWMGRILPILGIANYAQKFQGRVTITADKSTSTAYMELSSLRSEDTAVYYCARVTGAPVESAAWFDPWGQGTLVTVSS", "VL": "not shown"}, "B4": {"name": "VacW-201 (antibody, V domains shown)", "VH": "EVQLVESGGGLVQPGGSLRLSCAASGFTFSSYWMNWVRQAPGKGLEWVANIKQDGSEKYYVDSVKGRFTISRDNAKNSLYLQMNSLRAEDTAVYYCARMEYPYGGVDYWGQGTLVTVSS", "VL": "NFMLTQPHSVSESPGKTVTISCTGSSGSIASNYVQWYQQRPGSAPTTVIYEDNQRPSGVPDRFSGSIDSSSNSASLTISGLKTEDEADYYCQSYDSSNRNWVFGGGTKLTVL"}, "B5": {"name": "VacW-215 (antibody, V domains shown)", "VH": "EVQLVESGGGLIQPGGSLRLSCAASGFTVSSNYMSWVRQAPGKGLEWVSVIYSGGSTYYADSVKGRFTISRDNSKNTLYLQMNSLRAEDTAVYYCARSTWLRGGFDYWGQGTLVTVSS", "VL": "B4 VL with R99H, N100F, W101Y, G105T, L109V"}, "B6": {"name": "VacW-212 (antibody, V domains shown)", "VH": "B4 VH with G55E, Y80F, A88V, V106I, S119A", "VL": "B4 VL"}}, "note": "Where a chain is given by its changes, count along the chain named."}
{"molecular_target": "T1, SARS-CoV-2 RBD protein L452R mutant (SARS-CoV-2, UniProt P0DTC2 319-541)", "T1 construct": "domain: RBD", "test": "SPR, Biacore 8K, RBD on CM5 chip, IgG injected, 1:1 model", "units": {"Kd": "nM"}}
{"binder": "B1", "Kd": 1.96}
{"binder": "B2", "Kd": 0.0237}
{"binder": "B3", "Kd": 3.69}
{"binder": "B4", "Kd": 1.57}
{"binder": "B5", "Kd": 0.714}
{"binder": "B6", "Kd": 1.2}
